Measured values as given in paper PMC9658990.

biological target: T1, HMW-uPA (high molecular weight urokinase), biotinylated for FLAA (human, UniProt P00749;P00749 21-177;179-431); test: FLAA (OliGreen); BPs-T: 50 mM Bis-Tris/HCl pH 6.5, 110 mM NaCl, 5 mM MgCl2, 1 mM CaCl2, 1 mM KCl (printed KCl2), 0.05% Tween 20, 23 °C

Does CAAGCGGGGGTTAGAGATCTGTCAGTACGAGCTGGGTTTGCG (ssDNA) [Ex-S12] bind?
Result: binds

Does CCAGCGGGGGTGAGAGATCTGTCAGTACGAGCTGGGTTTGCG (ssDNA) [Ex-S2] bind?
Result: binds

Does CAAGCGGGGGTGAGAGATCTGTCAGTACGAGCTGGGCTTGCG (ssDNA) [Ex-S37] bind?
Result: binds

biological target: T1, HMW-uPA (high molecular weight …); test: as above; remark: another data set of the same source

How did the binding signal turn out when TAAGCGGGGGTGAGAGATCTGTCAGTACGAGCTGGGTTTGCG (ssDNA) [Ex-S1] was run?
The binding signal was 36 % signal reduction vs uPAapt-02-FR.

How did the binding signal turn out when CAAGCTGGGGTGAGAGATCTGTCAGTACGAGCTGGGTTTGCG (ssDNA) [Ex-S6] was run?
The binding signal was 50 % signal reduction vs uPAapt-02-FR.

For CAAGCGGGGGTGAGAGATCTGTCAGTACGAGCTGTGTTTGCG (ssDNA) [Ex-S35], which binding signal is on record?
The binding signal was 27 % signal reduction vs uPAapt-02-FR.

For CAAGCGGGGGTGAGATATCTGTCAGTACGAGCTGGGTTTGCG (ssDNA) [Ex-S16], which binding signal is on record?
The binding signal was 72 % signal reduction vs uPAapt-02-FR.

For CAAGCGGGGGTGAGAGATCTGTCAGCACGAGCTGGGTTTGCG (ssDNA) [Ex-S26], which binding signal is on record?
The binding signal was 89 % signal reduction vs uPAapt-02-FR.

CAAGCGGGGGTGATAGATCTGTCAGTACGAGCTGGGTTTGCG (ssDNA) [Ex-S14] was tested. Which binding signal did it give?
Its binding signal is 91 % signal reduction vs uPAapt-02-FR.

Which binding signal does the source give for CAAGCGGGTGTGAGAGATCTGTCAGTACGAGCTGGGTTTGCG (ssDNA) [Ex-S9] here?
Its binding signal is 65 % signal reduction vs uPAapt-02-FR.

For CAAGCGGGGGTGAGAGATCTGCCAGTACGAGCTGGGTTTGCG (ssDNA) [Ex-S22], which binding signal is on record?
Its binding signal is 99 % signal reduction vs uPAapt-02-FR.

With CAAGCGGGGGCGAGAGATCTGTCAGTACGAGCTGGGTTTGCG (ssDNA) [Ex-S11] as the binder, how does the binding signal read?
Its binding signal is 91 % signal reduction vs uPAapt-02-FR.

CAAGCGGGGGTGAGAGATCTGTCAGTCCGAGCTGGGTTTGCG (ssDNA) [Ex-S27] was tested. Which binding signal did it give?
The binding signal was 100 % signal reduction vs uPAapt-02-FR.

Which binding signal does the source give for CAAGCGGGGGTGAGAGATCTGTCAGTATGAGCTGGGTTTGCG (ssDNA) [Ex-S28] here?
The binding signal was 95 % signal reduction vs uPAapt-02-FR.

For CAAGCGGGGGTGAGAGATCTGTCAGTACGAGCTGGGTTTGCT (ssDNA) [Ex-S42], which binding signal is on record?
Its binding signal is 17 % signal reduction vs uPAapt-02-FR.

For CAAGCGGGGGTGAGAGATCTGTCAGTACTAGCTGGGTTTGCG (ssDNA) [Ex-S29], which binding signal is on record?
The binding signal was 47 % signal reduction vs uPAapt-02-FR.

With CACGCGGGGGTGAGAGATCTGTCAGTACGAGCTGGGTTTGCG (ssDNA) [Ex-S3] as the binder, how does the binding signal read?
The binding signal was 18 % signal reduction vs uPAapt-02-FR.

CAAGCGGGGGTGAGAGATCTGTCAGTACGAGCTGGTTTTGCG (ssDNA) [Ex-S36] was tested. Which binding signal did it give?
The binding signal was 11 % signal reduction vs uPAapt-02-FR.

How did the binding signal turn out when CAAGCGGGGGTGCGAGATCTGTCAGTACGAGCTGGGTTTGCG (ssDNA) [Ex-S13] was run?
The binding signal was 97 % signal reduction vs uPAapt-02-FR.

For CAATCGGGGGTGAGAGATCTGTCAGTACGAGCTGGGTTTGCG (ssDNA) [Ex-S4], which binding signal is on record?
The binding signal was 85 % signal reduction vs uPAapt-02-FR.

How did the binding signal turn out when CAAGCGGGGGTGAGAGATCTGTCAGTACGCGCTGGGTTTGCG (ssDNA) [Ex-S30] was run?
Its binding signal is 89 % signal reduction vs uPAapt-02-FR.

For CAAGCGTGGGTGAGAGATCTGTCAGTACGAGCTGGGTTTGCG (ssDNA) [Ex-S7], which binding signal is on record?
Its binding signal is 34 % signal reduction vs uPAapt-02-FR.

With CAAGCGGGGGTGAGAGATCTGTCAGTACGAGTTGGGTTTGCG (ssDNA) [Ex-S32] as the binder, how does the binding signal read?
Its binding signal is 63 % signal reduction vs uPAapt-02-FR.

CAAGCGGGGGTGAGAGATCTGTCATTACGAGCTGGGTTTGCG (ssDNA) [Ex-S25] was tested. Which binding signal did it give?
Its binding signal is 99 % signal reduction vs uPAapt-02-FR.

With CAAGCGGGGGTGAGAGATCTGTCCGTACGAGCTGGGTTTGCG (ssDNA) [Ex-S24] as the binder, how does the binding signal read?
The binding signal was 98 % signal reduction vs uPAapt-02-FR.

With CAAGCGGGGGTGAGAGATTTGTCAGTACGAGCTGGGTTTGCG (ssDNA) [Ex-S19] as the binder, how does the binding signal read?
The binding signal was 0 % signal reduction vs uPAapt-02-FR.

How did the binding signal turn out when CAAGCGGGGGTGAGAGACCTGTCAGTACGAGCTGGGTTTGCG (ssDNA) [Ex-S18] was run?
The binding signal was 94 % signal reduction vs uPAapt-02-FR.

With CAAGCGGGGGTGAGAGATCCGTCAGTACGAGCTGGGTTTGCG (ssDNA) [Ex-S20] as the binder, how does the binding signal read?
Its binding signal is 95 % signal reduction vs uPAapt-02-FR.

With CAAGCGGGGGTGAGAGATCTGTTAGTACGAGCTGGGTTTGCG (ssDNA) [Ex-S23] as the binder, how does the binding signal read?
The binding signal was 13 % signal reduction vs uPAapt-02-FR.

How did the binding signal turn out when CAAGCGGGGGTGAGAGATCTGTCAGTACGAGCTTGGTTTGCG (ssDNA) [Ex-S34] was run?
Its binding signal is 0 % signal reduction vs uPAapt-02-FR.

With CAAGCGGGGGTGAGAGATCTGTCAGTACGAGCTGGGTTTGTG (ssDNA) [Ex-S41] as the binder, how does the binding signal read?
The binding signal was 3 % signal reduction vs uPAapt-02-FR.

For CAAGCGGGGGTGAGAGATCTTTCAGTACGAGCTGGGTTTGCG (ssDNA) [Ex-S21], which binding signal is on record?
The binding signal was 92 % signal reduction vs uPAapt-02-FR.

For CAAGCGGGGGTGAGAGATCTGTCAGTACGAGCTGGGTTTTCG (ssDNA) [Ex-S40], which binding signal is on record?
Its binding signal is 3 % signal reduction vs uPAapt-02-FR.

CAAGCGGGGGTGAGAGCTCTGTCAGTACGAGCTGGGTTTGCG (ssDNA) [Ex-S17] was tested. Which binding signal did it give?
The binding signal was 16 % signal reduction vs uPAapt-02-FR.

How did the binding signal turn out when CAAGCGGGGGTGAGAGATCTGTCAGTACGATCTGGGTTTGCG (ssDNA) [Ex-S31] was run?
The binding signal was 100 % signal reduction vs uPAapt-02-FR.

How did the binding signal turn out when CAAGCGGGGGTGAGCGATCTGTCAGTACGAGCTGGGTTTGCG (ssDNA) [Ex-S15] was run?
The binding signal was 89 % signal reduction vs uPAapt-02-FR.

For CAAGCGGGGGTGAGAGATCTGTCAGTACGAGCTGGGTCTGCG (ssDNA) [Ex-S38], which binding signal is on record?
Its binding signal is 53 % signal reduction vs uPAapt-02-FR.

CAAGTGGGGGTGAGAGATCTGTCAGTACGAGCTGGGTTTGCG (ssDNA) [Ex-S5] was tested. Which binding signal did it give?
The binding signal was 56 % signal reduction vs uPAapt-02-FR.

CAAGCGGGGGTGAGAGATCTGTCAGTACGAGCTGGGTTCGCG (ssDNA) [Ex-S39] was tested. Which binding signal did it give?
The binding signal was 65 % signal reduction vs uPAapt-02-FR.

With CAAGCGGGGTTGAGAGATCTGTCAGTACGAGCTGGGTTTGCG (ssDNA) [Ex-S10] as the binder, how does the binding signal read?
The binding signal was 78 % signal reduction vs uPAapt-02-FR.

With CAAGCGGTGGTGAGAGATCTGTCAGTACGAGCTGGGTTTGCG (ssDNA) [Ex-S8] as the binder, how does the binding signal read?
The binding signal was 94 % signal reduction vs uPAapt-02-FR.

CAAGCGGGGGTGAGAGATCTGTCAGTACGAGCCGGGTTTGCG (ssDNA) [Ex-S33] was tested. Which binding signal did it give?
Its binding signal is 82 % signal reduction vs uPAapt-02-FR.
